For this test, the target named is T1, mouse serum albumin (mouse, UniProt P07724 25-608).
T1 construct: also called MSA
Briefly: Octet biolayer interferometry, biotinylated albumin on SA sensors, pH 6.0. The procedure, abridged: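 SA sensor, antigen 1 μg/ml × 600 s; buffer PBS-T 0.01% Tween 20 + 1% casein, pH 6.0 or 7.4; 25° C, 1000 rpm. 1:1 global fit, Rmax unlinked.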
(In general: BLI is a label-free optical method that tracks binding on a fibre tip over time.)

T1 sequence (P07724 25-608 limits assumed): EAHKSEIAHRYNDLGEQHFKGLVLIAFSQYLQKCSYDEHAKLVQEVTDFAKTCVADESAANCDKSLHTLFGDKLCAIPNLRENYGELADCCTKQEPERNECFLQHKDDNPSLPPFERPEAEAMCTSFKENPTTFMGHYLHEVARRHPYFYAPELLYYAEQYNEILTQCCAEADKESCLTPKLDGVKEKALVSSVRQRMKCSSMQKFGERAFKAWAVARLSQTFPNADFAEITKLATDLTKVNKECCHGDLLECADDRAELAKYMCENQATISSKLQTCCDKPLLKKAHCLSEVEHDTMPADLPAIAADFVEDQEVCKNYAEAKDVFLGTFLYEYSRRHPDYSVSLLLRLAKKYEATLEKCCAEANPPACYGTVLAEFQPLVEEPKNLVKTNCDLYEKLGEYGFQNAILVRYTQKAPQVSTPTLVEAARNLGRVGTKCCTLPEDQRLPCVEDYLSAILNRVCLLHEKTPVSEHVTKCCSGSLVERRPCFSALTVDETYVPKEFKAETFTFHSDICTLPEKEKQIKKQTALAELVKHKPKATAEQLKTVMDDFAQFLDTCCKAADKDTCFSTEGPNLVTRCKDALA

B1: HSA-41 (designed binder)
chain: MIPRGLSEAKPATPEIQEIVDKVKPQLEEKTNETYGKLEAVQYKTQVLANFFQRRWPGSTNYYIKVRAGDNKYMHLKVFNGPWKFRNTDRGADRVLTGYQVDKNKDDELTGFHHHHHH
notes: also called HSA-41 parent; HSA-41 AH parent
In general, koff refers to a measure of how fast the partners let go of each other. A higher koff goes with fast dissociation. In general, kon refers to the second-order rate constant of association. Lower therefore signals slower complex formation. With B1, the koff was found to be 0.0447 s⁻¹ and the kon is 470000 M⁻¹ s⁻¹.

The values above are taken from US20230272011A1 (AVACTA LIFE SCIENCES, published 2023).
